The test system of one series is C[C@H](O)C(=O)O. In words: cells, lysate or membranes.
For the next series, the system named is CC(=O)C(=O)O. In words: cells, lysate or membranes.

Regarding MCT1 (Rattus norvegicus), the Km was found to be 5.7 ± 1.2 mM with C[C@H](O)C(=O)O and 1.2 ± 0.2 mM in the series with CC(=O)C(=O)O.

As usually defined, the Km is the substrate concentration at which the rate is half of its maximum.

Source of the values: paper PMC2811425.
